Key:
p5E8G1 = assay: apparent Kd
p5E8G1N- = assay: apparent Kd

Kd (p5E8G1): 0.7 nM
Kd (p5E8G1N-): 0.7 nM
B1: human CD23 (receptor)
chain: MELQVSSGFVCNTCPEKWINFQRKCYYFGKGTKQWVHARYACDDMEGQLVSIHSPEEQDFLTKHASHTGSWIGLRNLDLKGEFIWVDGSHVDYSNWAPGEPTSRSQGEDCVMMRGSGRWNDAFCDRKLGAWVCDRLATCTPPASEGSAESMGPDSRPDPDGRLPTPSAPLHS

Source: US7223392 (dated 2007)
